Starred links: 1 amine or outer side, 2 acyl side, 3 side chain; linkers in the order of their positions; H or OH if unused. Positions of bridges follow the written chain, without caps; N, C: chain ends. Non-standard residues stand in square brackets, D forms with d. Groups on a side chain read outwards from the residue. Primed or numbered codes have the meaning given here. *: point of attachment. Af3(4SaPy2Ac) = 3-amino-L-phenylalanine, ring amine acylated with (4-sulfamoylpyrazol-1-yl)acetic acid, NS(=O)(=O)c1cnn(CC(=O)Nc2cccc(C[C@H](N[*:1])C(=O)[*:2])c2)c1; Af3(Hsfu) = 3-amino-L-phenylalanine, ring amine acylated with 4-sulfamoylfuran-2-carboxylic acid, NS(=O)(=O)c1coc(C(=O)Nc2cccc(C[C@H](N[*:1])C(=O)[*:2])c2)c1; Aph(SaPr)″ = 4-amino-L-phenylalanine, ring amine acylated with 3-sulfamoylpropanoic acid, NS(=O)(=O)CCC(=O)Nc1ccc(C[C@H](N[*:1])C(=O)[*:2])cc1; Af3(HO-Succinyl) = 3-aminophenylalanine with succinyl (free acid) on the ring amine, O=C(CCC(=O)[*:3])Nc1cccc(C[C@H](N[*:1])C(=O)[*:2])c1; Eem = S-benzyl-cysteine-sulfone, O=C([C@H](CS(=O)(=O)Cc1ccccc1)N[*:1])[*:2]; Phe(3-NHCO(CH2)3SO2NH2) = N[C@@H](Cc1cccc(NC(=O)CCCS(N)(=O)=O)c1)C(=O)O; APAc″ = 2-(4-(amino)piperidin-1-yl)acetic acid, NC1CCN(CC(=O)*)CC1; DOTA = O=C(O)CN1CCN(CC(=O)O)CCN(CC(=O)*)CCN(CC(=O)O)CC1; PPAc = 4-carboxymethyl piperazine linker; mXylylene = c1cc(C[*:1])cc(C[*:2])c1; tBuAla = CC(C)(C)C[C@H](N)C(=O)O; NMeD = CN[C@@H](CC(=O)O)C(=O)O; N4BzlCl = not defined here; hSer = N[C@@H](CCO)C(=O)O; AGLU′ = not defined here; APAc = not defined here; Apr = not defined here; Dap = NC[C@H](N)C(=O)O; Nlys = NCCCCNCC(=O)O; Bn = c1ccc(C*)cc1
B1: 3BP-3905 (peptide)
peptide: {DOTA-APAc}-VYCE[dP]DWLTWSC-NH2
modifications: linker 3-12 via mXylylene; reading uncertain; also: ['indium complexed by DOTA']
B2: 3BP-3565 (peptide)
peptide: Ac-VYCE[dP]DWLTWSC-NH2
modifications: linker 3-12 via mXylylene
SMILES: CC(=O)N[C@H](C(=O)N[C@@H](Cc1ccc(O)cc1)C(=O)N[C@H]1CSCc2cccc(c2)CSC[C@@H](C(N)=O)NC(=O)[C@H](CO)NC(=O)[C@H](Cc2c[nH]c3ccccc23)NC(=O)[C@H]([C@@H](C)O)NC(=O)[C@H](CC(C)C)NC(=O)[C@H](Cc2c[nH]c3ccccc23)NC(=O)[C@H](CC(=O)O)NC(=O)[C@H]2CCCN2C(=O)[C@H](CCC(=O)O)NC1=O)C(C)C
B3: 3BP-3282 (peptide)
peptide: Ac-VYCE[dP]DWLTWAC-NH2
modifications: linker 3-12 via mXylylene
SMILES: CC(=O)N[C@H](C(=O)N[C@@H](Cc1ccc(O)cc1)C(=O)N[C@H]1CSCc2cccc(c2)CSC[C@@H](C(N)=O)NC(=O)[C@H](C)NC(=O)[C@H](Cc2c[nH]c3ccccc23)NC(=O)[C@H]([C@@H](C)O)NC(=O)[C@H](CC(C)C)NC(=O)[C@H](Cc2c[nH]c3ccccc23)NC(=O)[C@H](CC(=O)O)NC(=O)[C@H]2CCCN2C(=O)[C@H](CCC(=O)O)NC1=O)C(C)C

Key:
[1] = biological target: T1, Fc-fusion protein of human carbonic anhydrase IX (human, UniProt Q16790 38-414); assay: SPR, captured hCAIX-Fc; t1/2 category A: >15.0 min
Protocol: (§1) Stock solutions of test compounds were prepared by dissolving each compound in DMSO. DMSO stock solution were diluted 1:1000 in Running Buffer without DMSO. […] SPR binding analyses were performed in Single Cycle Kinetic (SCK) mode at 25° C.
(§2) For each test compound, SPR raw data in the form of resonance units (RU) were plotted as sensorgrams using the Biacore™ T200 control software. The signal from the blank sensorgram was subtracted from that of the test compound sensorgram (blank corrected). The blank corrected sensorgram was corrected for baseline drift by subtracting the sensorgram of a SCK run without the test compound (running buffer only). […] Raw data and fit results were imported as text files in IDBS. The pKD value (negative decadic logarithm of dissociation constant) was calculated in the IDBS excel template.

[2] = biological target: T1, Fc-fusion protein of human carbonic …; assay: SPR, captured hCAIX-Fc; pKD category A: >8.0
Protocol: as §1, §2

| Binder | t1/2 (half-life of the complex, SPR) [1] | pKD [2] |
| --- | --- | --- |
| Ac-VYCE[Nlys](DOTA)DWLTWAC-NH2 (linker 3-12 via mXylylene) [3BP-3562] | > 15 min | > 8 pkd |
| {DOTA-PPAc}-QCE[dP]D[Af3(4SaPy2Ac)]LTWSC-NH2 (linker 2-11 via mXylylene) [3BP-4790] | > 15 min |  |
| {DOTA-APAc″}-VECE[dP]DWLTW[Dap]C-NH2 (lactam 2-11; linker 3-12 via mXylylene) [3BP-4175] | > 15 min | > 8 pkd |
| {DOTA-APAc}-VYCE[dP][NMeD]WLTWSC-NH2 (linker 3-12 via mXylylene; reading uncertain) [3BP-4107] | > 15 min | > 8 pkd |
| B1 | > 15 min | > 8 pkd |
| {DOTA-APAc″}-VYCE[dP]DW[tBuAla]TWSC-NH2 (linker 3-12 via mXylylene) [3BP-4142] | > 15 min | > 8 pkd |
| B2 | > 15 min | > 8 pkd |
| {DOTA-APAc}-VYCE[dP]DWLTWEC-NH2 (linker 3-12 via mXylylene; not fully specified (residue 11); reading uncertain) [3BP-4122] | > 15 min | > 8 pkd |
| {DOTA-APAc}-VYCE[dP]DWLE(AGLU′)WSC-NH2 (linker 3-12 via mXylylene; reading uncertain) [3BP-4121] | > 15 min | > 8 pkd |
| {DOTA-APAc}-VYCE[dP]NWLTWSC-NH2 (linker 3-12 via mXylylene; reading uncertain) [3BP-4103] | > 15 min | > 8 pkd |
| {DOTA-APAc″}-VYCE[dP]E(N4BzlCl)WLTWSC-NH2 (linker 3-12 via mXylylene; reading uncertain) [3BP-4334] | > 15 min | > 8 pkd |
| Ac-VYCE[dP]DWLTWE([Apr-DOTA])C-NH2 (linker 3-12 via mXylylene; reading uncertain) [3BP-3478] | > 15 min | > 8 pkd |
| {DOTA-APAc″}-VYCE[dP]DWLTWAC-NH2 (linker 3-12 via mXylylene) [3BP-3432] | > 15 min | > 8 pkd |
| B3 | > 15 min | > 8 pkd |
| {DOTA-APAc}-VYCE[dP]C(Bn)WLTWSC-NH2 (linker 3-12 via mXylylene; not fully specified; reading uncertain) [3BP-4128] | > 15 min | > 8 pkd |
| {GaDOTA-PPAc}-QCE[dP]D[Phe(3-NHCO(CH2)3SO2NH2)]LTWSC-NH2 (linker 2-11 via mXylylene; also: gallium in DOTA, also called natGa-DPI-4452) [3BP-4529] | > 15 min |  |
| {DOTA-APAc}-VYCE[dP][hSer]WLTWSC-NH2 (linker 3-12 via mXylylene; reading uncertain) [3BP-4102] | > 15 min | > 8 pkd |
| {DOTA-APAc}-VYCE[dP][Eem]WLTWSC-NH2 (linker 3-12 via mXylylene; not fully specified; reading uncertain) [3BP-4123] | > 15 min | > 8 pkd |
| {DOTA-APAc″}-VYCE[dP]D[Af3(HO-Succinyl)]LTWSC-NH2 (linker 3-12 via mXylylene) [3BP-4237] | > 15 min | > 8 pkd |
| {DOTA-PPAc}-QCE[dP]D[Af3(Hsfu)]LTWSC-NH2 (linker 2-11 via mXylylene) [3BP-4788] | > 15 min |  |
| {DOTA}-QCE[dP]D[Aph(SaPr)″]LTWSC-NH2 (linker 2-11 via mXylylene; also: Ga complexed in DOTA) [3BP-4602] | > 15 min |  |

Reference: patent publication US20250339569A1 (3B PHARMACEUTICALS, published 2025)
